# Reference: a protein production outcome set (Wang et al. 2014)
# Test: label from the status in PepcDB records
row,Sequence,protein production
1,MKAKAILLASVLLVGCQTSQNTGNVQQHAQSLSAAGQGEAGKFTSQARWMDDGTSIAPDQDLWAFIGDELKMGIPENSRIREQKQKYLRNKSYLHDVTLRAEPYMYWIAGQVKKRNMPMELVLLPIVESAFDPHATSGANAAGIWQIIPSTGRNYGLKQTRNYDARRDVVASTTAALDMMQRLNKMFDGDWLLTVAAYNSGEGRVMRAIKANKARGKPTDFWSLSLPRETKLYVPKMLALSEILKNSKRYGVRLPTTDESRALARVRLNSPVEMAQVADMAGMSISKLKTFNAGVKGSTLGVSGPQYVMVPKKHAEQLRESLASGEIDAVQSQLIADNTPLNSRSYKVRSGDTLSGIASRLGVSTKDLQQWNNLRGSRLKIGQSLTVGAGSSAQRLANNSDSITYRVRKGDSLSSIARRHGVNIKDVMRWNHDTDNLQPGDQLTLFVKDNSTPDSLEHHHHHH,not failed
2,MKAKLENRLERQLQQLSYARGLILDEIGYLPMTSEEASLFFRLLNRRYEKASIILTSNKGFADWGEMFGDNVLATAILDRLLHHSTTLNIKGESYQLKEKRKVGALTKSATPISEDEMAESGQQK,failed
3,MKAKREQILIRTSWISTIGNAILSTSKIIVGLWAGSLAVLGDGIDSATDVIISIVMIFTARIISQPPSKKYVFGYEKAEGIATKILSLVIFYAGVQMLISSIGSIFSEEAKEIPSAIAIYVTIFSIIGKLLLALYQYKQGKKIDSSMLTANAINMRNDVIISSGVLLGLIFTFIFKLPILDSITGLIISLFIIKSSIGIFIDSNVELMDGVKDVNVYNKIFEAVETVPGASNPHRVRSRMIGNLYMITLDIEVNPQITITQAHQIADAVEKSIKSSIDNVYDILVHVEPAGECQTDEKFGIDKGMVN,failed
4,MKALEGFTILLALVGVIPRIEGCIRVPPGVTAAKSPVDDNYVLSVNGNTQSYVPGQRYNVSLSAFSGLSFISFMLALDLESGDGDGDANALGTWEIADLAETRFSPRCPNLVENTNTNVKTRVDVFWVAPSSPGQGCILLRATVMQHRDVWFMDDGFLTKRMCEEEVDDIDTQPSIVDPCCACDEAKYELTFEGKWSRHTHPKDFPANSWRTRFSDIIGASHTLDYRFWQYGELASEGLREVAEHGSTRTLESELKDQSEHIRTIIKARGIAYPNVTGKTFAVFRVDSNHHLISLVSMVDPSPDWIVGVSGLELCLPNCSWVENKVHNLYPWDAGTDSGPSYMSADQPQVPPDVVRRIKSNFPNDPRSPFYDPTGAQMKPLATLHINRRRLYEKNCESSDSEQVPPECATNSWSRWDECTTKCGPGKQYRIREFKNPALASRHRCNNALREEKNCVGHKCAGFNEETAEGGEPEVAPSPGSSDDPQCGLSDWSEWSSCTVTCGTGEMTRSRHYLNKKAKKKCQKASRARLHETKICEAMECGGDIENEGGAGEPEEEQAGGDGGGSAEKRSIFRNFESYSQHREDYIPPVCGVTPWSDFSPCMGPCGGHGKRQRIRKVWNNNQVYGVTDPNDDGQDPCRHIKLHEEVNCTNPSCDTIVPGFCYDELTDSPCRDNDVANFWYYDHVSDQCAIYWSDRCDTNRNKFKSKEECEETCRLPRHKQELQHDGIPAIDCLVSDWVSHSCNASCGDGFQLRTRRVLRTPKYGGKPCPKHLVRLDRCYQRCDDMYSISGRGFGERRHVVRAPQPEPQDECRYSEWSAWTPCTATCGDNAVRQRTRTLMNTDLSYKCKDRVRMEKCVMMPCQLTSNDDPERW,failed
5,MKALRAFAIVAASLLLATGAAAQVSLSPPSGPNPFPKPLEPEKPKPRPPAPAKAPATEAKDKAKKPGDKPDAKAAPEGGAATAEDPNVDLVYGAYQRGFYKTAFELAQKRAADNDAKAMTMLGELYANALGVKRDYKKAAEWYSRAADLGDREAMFALAMARMGGRGGPPNREEAAKWLAQAAKLGEPKAAYNLALLYLDGQTFPQDVKRAAELLRMAADAGNPEAQYALATFYKEGTGVTKSIEQSVRLLQAAALAGNVPAQVEYAIALYNGTGTPKNEPAAVALLRKAARANNPIAQNRLAHVLVSGQGAPRDINEAMKWHLIAKTAGKGDLQLDQTLAQMSAEDRAKAEEAARTWIGGGK,failed
6,MKARQQKYCDKIANFWCHPTGKIIMSLAGKKIVLGVSGGIAAYKTPELVRRLRDRGADVRVAMTEAAKAFITPLSLQAVSGYPVSDSLLDPAAEAAMGHIELGKWADLVILAPATADLIARVAAGMANDLVSTICLATPAPVAVLPAMNQQMYRAAATQHNLEVLASRGLLIWGPDSGSQACGDIGPGRMLDPLTIVDMAVAHFSPVNDLKHLNIMITAGPTREPLDPVRYISNHSSGKMGFAIAAAAARRGANVTLVSGPVSLPTPPFVKRVDVMTALEMEAAVNASVQQQNIFIGCAAVADYRAATVAPEKIKKQATQGDELTIKMVKNPDIVAGVAALKDHRPYVVGFAAETNNVEEYARQKRIRKNLDLICANDVSQPTQGFNSDNNALHLFWQDGDKVLPLERKELLGQLLLDEIVTRYDEKNRR,failed
7,MKASCSSFTCQSADGKHFLGRTYDEYGDISANKVSIIPRGYEISLTFMGNKENNKQIVKYAIVGMNVDMFDTPFLTEGMNEHGLMISLLFFPHFTQYNSKSNAEYDVNLGLLLPFVLGKCKNIEEAVALLQKINPVDEPESQMELPCHYLISDKTGESIVVEPLADGLKIYRNEMGVLTNSPTYEWHKINLRNYLGISNLAKETQVVNGYKIEELGEGTGYLGIPGDYTPVSRFVRLAFSKNYMPEPQNEIDAVNKMFNIFETVDVPEGVIYTPPLRTPYHEKTLCTSVMCSESLKYYFSTSTNCRICCVDLNKAMNNNSKELINIDIPFEQDILTLN,failed
8,MKASELRNYTDEELKNLLEEKKRQLMELRFQLAMGQLKNTSLIKLTKRDIARIKTILRERELGIRR,not failed
9,MKATTSLATSCRRLLLWGVLTLQCLFSTAQKRFTADVEQQAEKILSQMTLDEKLSYIGGINWMYTRPLERFGIPRLKMSDGPQGLGTHGPSTAYPCALMLAATWNEQLATEYGSALGKDCRARGVHVLLGPAVNIYRAPMCGRNFEYMGEDPYLTSRMATGYIKGVQGQGVMATIKHFIANNSDYDRDHISSDIDERTLNEIYFPSFRAAVQEAEVGAVMSSYNLLNGIYTTEHPWLLKDVLRQQWGFKGILMSDWGSTHHCIPAVKGGLDLEMPAGSKMQPEELKYYLRTGDITIETIDEKVRHILQTLLAFGFRETQQPDTHIPLKNPQCAQTALNVASEGLVLLKNTNQILPIRSGKVKTIAVVGKNAQGYVCGGGSGEVHPFQYVSVLDGIRKEAAERDIRVEYLDVYDYLPTIIFTDTERKQKGFRAQYFDNMNLEGTPKVEQTETKINYSWSGGTGLKEMPKEQFSVRWNGTICPQETDEYLFTLGGDDGYRLYIDGKLIADEWHEGAFRNSTYRCMLEAGKKYDLKIEYFQKGGGAAVNFIWKQKNASNNLFVEALNRNDLVVACIGFNSDTEGEGRDRTFELPEDEAQLLQNTLQSKRPVVGIVNAGGNVEMQSWEPSLKGLLWAWYGGQEAGTAIARTLFGELNPSGKLPITFEKRWEDNPTFHSYYDPDGDKHVEYAEGIFVGYRGYDKLKREVQYPFGYGLSYTRFKLSAPTVGTPKTDGSVTVTCKLTNTGRTAGAEVVQLYVSNKDTTVEHPEKELKGFRKVYLEPGETKSIEITVPAEAFSHYDTGSRRFVIDRGSHDILLGFSSRDIKAKMSVGISR,failed
10,MKAVIMAGGFGTRIQPLTSSIPKPMIPLLNRPIMLHIVELLKKYEITDLVMLLYHQPAVIKNFFRDGTDFGVKITYVTPLQDMGTAGAVKCAEKFLDERFLVISGDLLTDFNLQKIIDSHEDNKALATITLTSVKDPLQFGVVITDKEKRITQFLEKPGWGEVISDTINTGIYVFEPEIFAHIPEEENYDFSQDLFPKLLEQQKPLFGYTAKGYWRDIGNTDSYREAHHDIFKGKVNVKIDEAKQDLVGKDLRLGSDVNLDEHVTLEGTVVVGDNSQVFESAHIKDTVIGRNCTIEPGVRLNRCVIWDNVYVKKGAKLNDGVLCSNVRVGHGVVMEEGVIVADDTSIGEEAYIKRDVKIWPRKVIEAGATVTGNLIWGEKWKKSLFEGAMVKGLTNMELTPEFVAKLGCAYGTMLPKGSHIISGRDSYRSCRMLKRSFIGGLLSAGINVRDLTMVPMPVLRYKLRTFGEVGGIYFRQAIDDPASTEIVFLDGDGLDFSSSMGKNVERIFFKENFRRAHHTEPGALSEIPQQVTDFYREGFLHTIGKSPLQKKQFKVVIDFNHSSASQLLPGILTQMGCEVISLNAYVDEERGIQAVAERQQSLAQLSKIVATLEASAGFWLDPGTEGVIVVDETGKVYEGAELLPLMVGLALRSGEKGLFAVPVSAPSAIERMVQERGSAVTRTKSADRAMIEATLSSEVVLAGTMDGRFAFPKFQSAFDGMFAIAKTIELVAKGGLSISRVAAEIPQRVFLQTRVPCVWDMKGGIMRKMSEDSLDKEASFIDGIKVHFGEDWALVLPDQYLPYVHIVAEARDAKTAQKLLDEYKKKVEGWKRELQ,failed
11,MKAVKSERERGSRRRHRDGDVVLPAGVVVKQERLSPEVAPPAHRRPDHSGGSPSPPTSEPARSGHRGNRARGVSRSPPKKKNKASGRRSKSPRSKRNRSPHHSTVKVKQEREDHPRRGREDRQHREPSEQEHRRARNSDRDRHRGHSHQRRTSNERPGSGQGQGRDRDTQNLQAQEEEREFYNARRREHRQRNDVGGGGSESQELVPRPGGNNKEKEVPAKEKPSFELSGALLEDTNTFRGVVIKYSEPPEARIPKKRWRLYPFKNDEVLPVMYIHRQSAYLLGRHRRIADIPIDHPSCSKQHAVFQYRLVEYTRADGTVGRRVKPYIIDLGSGNGTFLNNKRIEPQRYYELKEKDVLKFGFSSREYVLLHESSDTSEIDRKDDEDEEEEEEVSDS,failed
12,MKAWVLKRLGGPLELVDLPEPEAEEGEVVLRVEAVGLNFADHLMRLGAYLTRLHPPFIPGMEVVGVVEGRRYAALVPQGGLAERVAVPKGALLPLPEGLSPEEAAAFPVSFLTAYLALKRAQARPGEKVLVQAAAGALGTAAVQVARAMGLRVLAAASRPEKLALPLALGAEEAATYAEVPERAKAWGGLDLVLEVRGKEVEESLGLLAHGGRLVYIGAAEGEVAPIPPLRLMRRNLAVLGFWLTPLLREGALVEEALGFLLPRLGRELRPVVGPVFPFAEAEAAFRALLDRGHTGKVVVRL,not failed
13,MKCHRVNELIELLHPAWQKEPDLNLVQFLQNLAQEAGFEGQLNELTDDILIYHLKMRDSDKEQVIPGLKKDYEEDFKTALLRARGVIKDLEHHHHHH,not failed
14,MKCKRLNEVIELLQPAWQKEPDFNLLQFLQKLAKESGFDGELADLTDDILIYHLKMRDSAKDAVIPGLQKDYEEDFKTALLRARGVIKELEHHHHHH,not failed
15,MKCNDKLAPFEVFDHVVNKKLSFRHVTMDDVDMLHSWMHEEHVIPYWKLNIPLVDYKKHLQTFLNDDHQTLMVGAINGVPMSYWESYWVKEDIIANYYPFEEHDQGIHLLIGPQEYLGQGLIYPLLLAIMQQKFQEPDTNTIVAEPDRRNKKMIHVFKKCGFQPVKEVELPDKIGLLMKCEQNVFEKRWSDWKMNKF,not failed
16,MKDVTIYHNPRCSKSRETLALVEQQGITPQVVLYLETPPSVDKLKELLQQLGFSDARQLMRTKEDLYKTLNLDDRGLTQDQLLQAMADNPKLIERPIVVTQGKARIGRPPEQVLEILK,not failed
17,MKDYQKILVVVDPTTENQVALARAVTLASKSNAHVTVFLSIFDFSYEMTSILSSQEREAMRQGVIDQRVAWIQDLLAPYNHLGLNIDTQVIWHNRPFESIINHAIAGQYDLIVKGTHAHDKLKAVIFTPTDWHLMRKAPVPVLMVKDHDWPETGKILCAVNVATEDTDHQMLNGKIIEHAKDLAGKFAAEVHLVNGFPGTPVNLAIELPDFDAQTYNDTIRLQHEQRVQYLADAYGIDKQNCHVKEGLPEDVIPELAEQLDAELVILGTVGRTGFSAALIGNTAEHVIDSINCDLLAIKPDGYKSPLEEA,not failed
18,MKEDPRIIKTLSKLQKAFVMLLKTYDAGDINVRQISDEAGVTRGAFYSHFSDKKEFVNFTINELVGSLFNSSLKDSVGFVDEVNHKNAHGTNVLSVSNFFDKVAADYQTYTIVLDTEKLPQFTEVLKERLNSEIKTFAEYYGKKVKHDGFPIEVLSSYYVNGLIGMIRMWLDEGMVYTSHYMANAAKKILGTKIQIDSQNIDLSDFFVDLEHHHHHH,not failed
